According to patent US20200095327A1 (DRAGONFLY THERAPEUTICS, published 2020):

Tests used:
[1] = biological target: T1, CD33 expressed on MV4-11 human AML cells (human, UniProt P20138 18-364); assay: flow cytometry on MV4-11 cells, anti-human IgG secondary
T1 construct: whole, on cells; also called cell-expressed CD33
Excerpt: Human AML cell line MV4-11, expressing CD33 was used to assay the binding of TriNKETs to the tumor associated antigen.

[2] = biological target: T2, Tyrp-1 on B16F10 melanoma cells (UniProt P07147 25-537, limits assumed); assay: flow cytometry on B16F10 tumor cells, 60 ug/mL with four-fold dilutions, goat anti-mouse PE secondary (FIG. 50A)
T2 construct: whole, on cells; also called Tyrp-1-positive B16F10 melanoma cells; B16F10 tumor cells
Experimental: 60 μg/mL of indicated antibodies with four-fold dilutions were added to 2×10⁵ B16F10 tumor cells (FIG. 50A) or EL4-mNKG2D cells (FIG. 50B). Binding was assessed using a goat anti-mouse PE secondary antibody followed by flow cytometric analysis.

T1 sequence (P20138 18-364): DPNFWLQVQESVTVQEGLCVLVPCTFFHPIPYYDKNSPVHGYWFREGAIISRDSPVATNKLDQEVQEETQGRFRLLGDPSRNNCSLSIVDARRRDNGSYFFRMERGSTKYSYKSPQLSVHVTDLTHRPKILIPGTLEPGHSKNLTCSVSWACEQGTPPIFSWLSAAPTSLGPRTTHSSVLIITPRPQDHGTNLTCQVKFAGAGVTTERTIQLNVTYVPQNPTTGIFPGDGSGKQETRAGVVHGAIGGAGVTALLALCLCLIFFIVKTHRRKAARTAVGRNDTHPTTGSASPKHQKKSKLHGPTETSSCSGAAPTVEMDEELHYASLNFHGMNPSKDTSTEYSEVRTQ

Binder	binding result [1]	binding result [2]
CD33-TriNKET-C26 (ADI-28226 and a CD33-binding domain) (bispecific antibody, V domains shown, also called C26-TriNKET-CD33; CD33-targeting TriNKET) VH 1: QVQLQQWGAGLLKPSETLSLTCAVYGGSFSGYYWSWIRQPPGKGLEWIGEIDHSGSTNYNPSLKSRVTISVDTSKNQFSLKLSSVTAADTAVYYCARARGPWSFDPWGQGTLVTVSS VL 1: DIQMTQSPSTLSASVGDRVTITCRASQSISSWLAWYQQKPGKAPKLLIYKASSLESGVPSRFSGSGSGTEFTLTISSLQPDDFATYYCQQYGSFPITFGGGTKVEIK VH 2: QVQLVQSGAEVKKPGASVKVSCKASGYTFTDYVVHWVRQAPGQGLEWMGYINPYNDGTKYNEKFKGRVTMTRDTSISTAYMELSRLRSDDTAVYYCARDYRYEVYGMDYWGQGTLVTVSS VL 2: DIVLTQSPASLAVSPGQRATITCTASSSVNYIHWYQQKPGQPPKLLIYDTSKVASGVPARFSGSGSGTDFTLTINPVEANDTANYYCQQWRSYPLTFGQGTKLEIK	binds	
CD33-TriNKET-F04 (ADI-29404 and a CD33-binding domain) (bispecific antibody, V domains shown, also called F04-TriNKET-CD33; CD33-targeting TriNKET) VH 1: QVQLQQWGAGLLKPSETLSLTCAVYGGSFSGYYWSWIRQPPGKGLEWIGEIDHSGSTNYNPSLKSRVTISVDTSKNQFSLKLSSVTAADTAVYYCARARGPWSFDPWGQGTLVTVSS VL 1: DIQMTQSPSTLSASVGDRVTITCRASQSISSWLAWYQQKPGKAPKLLIYKASSLESGVPSRFSGSGSGTEFTLTISSLQPDDFATYYCEQYDSYPTFGGGTKVEIK VH 2: QVQLVQSGAEVKKPGASVKVSCKASGYTFTDYVVHWVRQAPGQGLEWMGYINPYNDGTKYNEKFKGRVTMTRDTSISTAYMELSRLRSDDTAVYYCARDYRYEVYGMDYWGQGTLVTVSS VL 2: DIVLTQSPASLAVSPGQRATITCTASSSVNYIHWYQQKPGQPPKLLIYDTSKVASGVPARFSGSGSGTDFTLTINPVEANDTANYYCQQWRSYPLTFGQGTKLEIK	binds	
mcFAE-C26.99 TriNKET (bispecific antibody, mouse IgG2c, also called murine cFAE-C26.99 TriNKET; TA99 TriNKET) light 1: DIQMTQSPSTLSASVGDRVTITCRASQSISSWLAWYQQKPGKAPKLLIYKASSLESGVPSRFSGSGSGTEFTLTISSLQPDDFATYYCQQYGSFPITFGGGTKVEIKRADAAPTVSIFPPSSEQLTSGGASVVCFLNNFYPKDINVKWKIDGSERQNGVLNSWTDQDSKDSTYSMSSTLTLTKDEYERHNSYTCEATHKTSTSPIVKSFNRNEC heavy 1: QVQLQQWGAGLLKPSETLSLTCAVYGGSFSGYYWSWIRQPPGKGLEWIGEIDHSGSTNYNPSLKSRVTISVDTSKNQFSLKLSSVTAADTAVYYCARARGPWSFDPWGQGTLVTVSSAKTTAPSVYPLAPVCGGTTGSSVTLGCLVKGYFPEPVTLTWNSGSLSSGVHTFPALLQSGLYTLSSSVTVTSNTWPSQTITCNVAHPASSTKVDKKIEPRVPITQNPCPPLKECPPCAAPDLLGGPSVFIFPPKIKDVLMISLSPMVTCVVVDVSEDDPDVQISWFVNNVEVHTAQTQTHREDYNSTLRVVSALPIQHQDWMSGKEFKCKVNNRALPSPIEKTISKPRGPVRAPQVYVLPPPAEEMTKKEFSLTCMIKGFLPAEIAVDWTSNGRTEQNYKNTATVLDSDGSYFMYSRLRVQKSTWERGSLFACSVVHEGLHNHLTTKTISRSLGK light 2: DIQMSQSPASLSASVGETVTITCRASGNIYNYLAWYQQKQGKSPHLLVYDAKTLADGVPSRFSGSGSGTQYSLKISSLQTEDSGNYYCQHFWSLPFTFGSGTKLEIKRADAAPTVSIFPPSSEQLTSGGASVVCFLNNFYPKDINVKWKIDGSERQNGVLNSWTDQDSKDSTYSMSSTLTLTKDEYERHNSYTCEATHKTSTSPIVKSFNRNEC heavy 2: EVQLQQSGAELVRPGALVKLSCKTSGFNIKDYFLHWVRQRPDQGLEWIGWINPDNGNTVYDPKFQGTASLTADTSSNTVYLQLSGLTSEDTAVYFCTRRDYTYEKAALDYWGQGASVIVSSAKTTAPSVYPLAPVCGGTTGSSVTLGCLVKGYFPEPVTLTWNSGSLSSGVHTFPALLQSGLYTLSSSVTVTSNTWPSQTITCNVAHPASSTKVDKKIEPRVPITQNPCPPLKECPPCAAPDLLGGPSVFIFPPKIKDVLMISLSPMVTCVVVDVSEDDPDVQISWFVNNVEVHTAQTQTHREDYNSTLRVVSALPIQHQDWMSGKEFKCKVNNRALPSPIEKTISKPRGPVRAPQVYVLPPPAEEMTKKEFSLTCMITGFLPAEIAVDWTSNGRTEQNYKNTATVLDSDGSYLMYSKLTVQKSTWERGSLFACSVVHEGLHNHLTTKTISRSLGK		binds
